Columns and labels:
Experiment in all cases: cell-based or functional assay
[1] = molecular target: HIV-1 JR-CSF Env on pseudovirus (HIV-1 JR-CSF) (UniProt P20871)
[2] = molecular target: 92RW020 Env on pseudovirus (HIV-1 92RW020)
[3] = molecular target: ADA Env on pseudovirus (HIV-1 ADA)
[4] = molecular target: JR-FL(E168K) Env on pseudovirus (HIV-1 JR-FL)
[5] = molecular target: JR-CSF(Y318A) Env on pseudovirus (HIV-1 JR-CSF) (UniProt P20871)
[6] = molecular target: JR-CSF(1309A) Env on pseudovirus (HIV-1 JR-CSF) (UniProt P20871)

B1: 1503_H05 (PG16) (TCN-119) (antibody, V domains shown)
VH: QEKLVESGGGVVQPGGSLRLSCLASGFTFHKYGMHWVRQAPGKGLEWVALISDDGMRKYHSDSMWGRVTISRDNSKNTLYLQFSSLKVEDTAMFFCAREAGGPIWHDDVKYYDFNDGYYNYHYMDVWGKGTIVTVSS
VL: QSALTQPASVSGSPGQTITISCNGTRSDVGGFDSVSWYQQSPGKAPKVMVFDVSHRPSGISNRFSGSKSGNTASLTISGLHIEDEGDYFCSSLTDRSHRIFGGGTKVTVLG
[1]
  IC50 (ug/ml), pseudovirus neutralization, TZM-bl assay: 0.001 µg/mL
[2]
  IC50 (ug/ml), pseudovirus neutralization, TZM-bl assay: 0.02 µg/mL
[3]
  IC50 (ug/ml), pseudovirus neutralization, TZM-bl assay: 0.003 µg/mL
[4]
  IC50 (ug/ml), pseudovirus neutralization, TZM-bl assay: 0.002 µg/mL
[5]
  IC50 (ug/ml), pseudovirus neutralization, TZM-bl assay: > 1 µg/mL
[6]
  IC50 (ug/ml), pseudovirus neutralization, TZM-bl assay: > 1 µg/mL

B2: 1489_I13 (PG16) (TCN-120) (antibody, V domains shown)
VH: QEQLLESGGGVVQPGGSLRLSCLASGFTFHKYGMHWVRQAPGKGLEWVALISDDGMRKYHSNSMWGRVTISRDNSKNTLYLQFSSLKVEDTAMFFCAREAGGPIWHDDVKYYDFNDGYYNYHYMDVWGKGTTVTVSS
VL: QSALTQPASVSGSPGQTITISCNGTSSDVGGFDSVSWYQQSPGKAPKVMVFDVSHRPSGISNRFSGSKSGNTASLTISGLHIEDEGDYFCSSLTDRSHRIFGGGTKVTVLG
[1]
  IC50 (ug/ml), pseudovirus neutralization, TZM-bl assay: 0.002 µg/mL
[2]
  IC50 (ug/ml), pseudovirus neutralization, TZM-bl assay: 0.03 µg/mL
[3]
  IC50 (ug/ml), pseudovirus neutralization, TZM-bl assay: 0.008 µg/mL
[4]
  IC50 (ug/ml), pseudovirus neutralization, TZM-bl assay: 0.005 µg/mL
[5]
  IC50 (ug/ml), pseudovirus neutralization, TZM-bl assay: > 1 µg/mL
[6]
  IC50 (ug/ml), pseudovirus neutralization, TZM-bl assay: > 1 µg/mL

B3: 1469_M23 (PG16) (TCN-118) (antibody, V domains shown)
VH: QEKLVESGGGVVQPGGSLRLSCLASGFTFHKYGMHWVRQAPGKGLEWVALISDDGMRKYHSDSMWGRVTISRDNSKNTLYLQFSSLKVEDTAMFFCAREAGGPIWHDDVKYYDFNDGYYNYHYMDVWGKGTTVTVSS
VL: QSALTQPASVSGSPGQTITISCNGTRSDVGGFDSVSWYQQSPGRAPKVMVFDVSHRPSGISNRFSGSKSGNTASLTISGLHIEDEGDYFCSSLTDRSHRIFGGGTKLTVLG
[1]
  IC50 (ug/ml), pseudovirus neutralization, TZM-bl assay: 0.002 µg/mL
[2]
  IC50 (ug/ml), pseudovirus neutralization, TZM-bl assay: 0.05 µg/mL
[3]
  IC50 (ug/ml), pseudovirus neutralization, TZM-bl assay: 0.005 µg/mL
[4]
  IC50 (ug/ml), pseudovirus neutralization, TZM-bl assay: 0.005 µg/mL
[5]
  IC50 (ug/ml), pseudovirus neutralization, TZM-bl assay: > 1 µg/mL
[6]
  IC50 (ug/ml), pseudovirus neutralization, TZM-bl assay: > 1 µg/mL

B4: 1456_A12 (PG16) (TCN-117) (antibody, V domains shown)
VH: HEQLVEAGGGVVQPGGSLRLSCLASGFTFHKYGMHWVRQAPGKGLEWVALISDDGMRKYHSDSMWGRVTISRDNSKNTLYLQFSSLRVEDTAMFFCAREAGGPIWHDDVKYYDFNDGYYNYHYMDVWGKGTKVTVSS
VL: QSALTQPASVSGSPGQTITISCNGTSRDVGGFDSVSWYQQSPGKAPKVMVFDVSHRPSGMSNRFSGSKSGNTASLTISGLHIEDEGDYFCSSLTDRSHRIFGGGTKLTVLG
[1]
  IC50 (ug/ml), pseudovirus neutralization, TZM-bl assay: 0.001 µg/mL
[2]
  IC50 (ug/ml), pseudovirus neutralization, TZM-bl assay: 0.05 µg/mL
[3]
  IC50 (ug/ml), pseudovirus neutralization, TZM-bl assay: 0.005 µg/mL
[4]
  IC50 (ug/ml), pseudovirus neutralization, TZM-bl assay: 0.003 µg/mL
[5]
  IC50 (ug/ml), pseudovirus neutralization, TZM-bl assay: > 1 µg/mL
[6]
  IC50 (ug/ml), pseudovirus neutralization, TZM-bl assay: > 1 µg/mL
